test system: c-Src; assay: phosphorylation enrichment, bacterial display (enrichment ratio); higher = better substrate or ligand; peptides without Tyr show the background
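Note: 11-residue human phosphosite peptides and single-mutation variants displayed on the E. coli surface, counted by deep sequencing, each peptide's frequency after selection divided by its frequency in the unselected input library; frequency after pTyr selection over input frequency; kinase dosed for 20-30% of maximal phosphorylation in three min.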

Sequence	phosphorylation enrichment
DGMADCSDPSY [CDC5L_Y459_Y459C]	0.425
AKLDEYIAIAK [RCOR3_Y46]	0.367
YAADYYKLLGN [ROR2_Y646]	0.908
PRDGEYFTLQI [TP53_Y327_L323R]	3.76
IGERTYGQVFK [CDK13_Y716_G714R_YF]	5.22
RGYRQYAYDGK [HLA-A_Y140_D140Y]	0.434
IIAVHYVLEES [RYR2_Y4559]	0.488
KDYETYQPFQN [CTNND2_Y1157]	4.83
SLHPGYNFRFA [P2RX7_Y291_Y288H_YF]	0.385
SARVRYLMAEK [LDHB_Y173_F171V]	0.38
KLIETYFSKNF [PLP1_Y50_YF]	0.558
TQFWRYFAGNL [SLC25A5_Y112_L111R]	0.489
QNTVDYFDLFG [PTPN11_Y62_G60V_YF]	0.619
ALDRPYTSKHS [NANS_Y71_E68D]	0.542
PRPACYPSTVS [CACNA1C_Y1832_G1831C]	0.484
NIQKKYFRAIL [CHD7_Y1217_YF]	0.335
YGEYRYRSVIK [CFTR_Y517_D513G]	4.36
KGFCGYSFDDI [TMEM230_Y110_R108C_YF]	1.16
ATKNDYWAMLA [WWOX_Y287_P282A]	0.418
HEDPMYDIIRD [RP9_Y142]	5.36
MHFSNYVSKGS [PDGFRA_Y849_D846Y_YF]	0.384
QRASDYYSQQM [GBP6_Y333_A331S]	0.58
DWRQEYVLNEP [TGM1_Y267_S272P]	1.89
ADFFDYGHGLS [KHDRBS3_Y304_YF]	0.449
LADKPYTFEFF [FXN_Y118_D122Y_YF]	2.87
VIESSYTSADG [DHCR7_Y382_C380S]	0.546
TFGVVYKARNK [CDK2_Y19_YF]	0.346
CRVEPYGENFN [APOA4_Y310_R305C]	0.616
PLDEEYFTLQI [TP53_Y327_G325E]	2.69

target: Fes (UniProt P07332); assay: as above
Sequence (P07332 whole entry, looked up): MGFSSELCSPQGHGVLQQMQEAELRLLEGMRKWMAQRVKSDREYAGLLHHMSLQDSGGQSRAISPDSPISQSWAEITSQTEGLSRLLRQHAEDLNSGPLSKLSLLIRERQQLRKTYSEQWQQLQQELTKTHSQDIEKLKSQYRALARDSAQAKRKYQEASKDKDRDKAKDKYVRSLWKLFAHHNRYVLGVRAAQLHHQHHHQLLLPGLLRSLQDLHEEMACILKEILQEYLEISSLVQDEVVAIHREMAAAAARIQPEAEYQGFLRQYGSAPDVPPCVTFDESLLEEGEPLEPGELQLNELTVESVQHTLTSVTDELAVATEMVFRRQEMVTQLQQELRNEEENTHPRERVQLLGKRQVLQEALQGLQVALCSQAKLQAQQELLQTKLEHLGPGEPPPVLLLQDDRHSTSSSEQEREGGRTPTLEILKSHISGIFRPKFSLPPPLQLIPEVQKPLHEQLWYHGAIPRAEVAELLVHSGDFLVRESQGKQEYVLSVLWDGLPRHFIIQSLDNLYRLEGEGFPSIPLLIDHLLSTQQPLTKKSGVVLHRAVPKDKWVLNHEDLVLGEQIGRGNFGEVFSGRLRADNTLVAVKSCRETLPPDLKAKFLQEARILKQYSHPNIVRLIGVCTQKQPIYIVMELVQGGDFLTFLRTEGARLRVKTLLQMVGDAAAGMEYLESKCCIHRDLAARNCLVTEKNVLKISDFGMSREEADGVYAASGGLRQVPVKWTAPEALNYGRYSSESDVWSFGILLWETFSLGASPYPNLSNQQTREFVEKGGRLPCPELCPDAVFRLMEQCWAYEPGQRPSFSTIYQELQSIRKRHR

Sequence	phosphorylation enrichment
DGMADCSDPSY [CDC5L_Y459_Y459C]	1.18
AKLDEYIAIAK [RCOR3_Y46]	0.949
YAADYYKLLGN [ROR2_Y646]	0.993
PRDGEYFTLQI [TP53_Y327_L323R]	1.38
IGERTYGQVFK [CDK13_Y716_G714R_YF]	0.905
RGYRQYAYDGK [HLA-A_Y140_D140Y]	0.474
IIAVHYVLEES [RYR2_Y4559]	2.04
KDYETYQPFQN [CTNND2_Y1157]	1.17
SLHPGYNFRFA [P2RX7_Y291_Y288H_YF]	0.904
SARVRYLMAEK [LDHB_Y173_F171V]	0.756
KLIETYFSKNF [PLP1_Y50_YF]	0.99
TQFWRYFAGNL [SLC25A5_Y112_L111R]	1.05
QNTVDYFDLFG [PTPN11_Y62_G60V_YF]	1.44
ALDRPYTSKHS [NANS_Y71_E68D]	0.638
PRPACYPSTVS [CACNA1C_Y1832_G1831C]	0.792
NIQKKYFRAIL [CHD7_Y1217_YF]	0.655
YGEYRYRSVIK [CFTR_Y517_D513G]	0.826
KGFCGYSFDDI [TMEM230_Y110_R108C_YF]	1.35
ATKNDYWAMLA [WWOX_Y287_P282A]	1
HEDPMYDIIRD [RP9_Y142]	1.48
MHFSNYVSKGS [PDGFRA_Y849_D846Y_YF]	0.578
QRASDYYSQQM [GBP6_Y333_A331S]	0.754
DWRQEYVLNEP [TGM1_Y267_S272P]	1.13
ADFFDYGHGLS [KHDRBS3_Y304_YF]	0.905
LADKPYTFEFF [FXN_Y118_D122Y_YF]	1.82
VIESSYTSADG [DHCR7_Y382_C380S]	0.961
TFGVVYKARNK [CDK2_Y19_YF]	0.917
CRVEPYGENFN [APOA4_Y310_R305C]	1.57
PLDEEYFTLQI [TP53_Y327_G325E]	2.25

target: FGFR3 (UniProt P22607); assay: as above
Sequence (P22607 whole entry, looked up): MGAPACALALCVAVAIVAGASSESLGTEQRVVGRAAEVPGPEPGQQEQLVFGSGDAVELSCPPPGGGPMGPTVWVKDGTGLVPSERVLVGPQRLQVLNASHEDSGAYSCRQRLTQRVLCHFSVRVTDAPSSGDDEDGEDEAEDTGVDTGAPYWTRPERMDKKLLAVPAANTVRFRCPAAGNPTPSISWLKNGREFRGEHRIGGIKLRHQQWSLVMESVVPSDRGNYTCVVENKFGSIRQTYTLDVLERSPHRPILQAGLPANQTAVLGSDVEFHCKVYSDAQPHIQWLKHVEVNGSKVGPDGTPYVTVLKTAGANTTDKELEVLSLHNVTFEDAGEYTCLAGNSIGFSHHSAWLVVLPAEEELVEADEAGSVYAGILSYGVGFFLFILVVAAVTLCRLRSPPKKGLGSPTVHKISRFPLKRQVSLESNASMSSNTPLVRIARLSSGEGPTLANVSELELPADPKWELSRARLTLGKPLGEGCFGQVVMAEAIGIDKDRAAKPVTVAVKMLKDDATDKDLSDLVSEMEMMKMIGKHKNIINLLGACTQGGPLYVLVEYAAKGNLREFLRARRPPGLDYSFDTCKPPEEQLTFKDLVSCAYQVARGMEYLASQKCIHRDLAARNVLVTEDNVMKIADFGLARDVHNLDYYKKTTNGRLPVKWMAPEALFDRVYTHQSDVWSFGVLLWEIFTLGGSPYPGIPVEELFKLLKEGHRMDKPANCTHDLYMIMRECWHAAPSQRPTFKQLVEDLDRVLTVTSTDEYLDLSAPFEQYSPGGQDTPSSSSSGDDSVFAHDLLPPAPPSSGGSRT

Sequence	phosphorylation enrichment
DGMADCSDPSY [CDC5L_Y459_Y459C]	0.754
AKLDEYIAIAK [RCOR3_Y46]	0.711
YAADYYKLLGN [ROR2_Y646]	9.3
PRDGEYFTLQI [TP53_Y327_L323R]	8.55
IGERTYGQVFK [CDK13_Y716_G714R_YF]	0.482
RGYRQYAYDGK [HLA-A_Y140_D140Y]	0.39
IIAVHYVLEES [RYR2_Y4559]	0.626
KDYETYQPFQN [CTNND2_Y1157]	0.801
SLHPGYNFRFA [P2RX7_Y291_Y288H_YF]	0.524
SARVRYLMAEK [LDHB_Y173_F171V]	0.532
KLIETYFSKNF [PLP1_Y50_YF]	0.589
TQFWRYFAGNL [SLC25A5_Y112_L111R]	0.655
QNTVDYFDLFG [PTPN11_Y62_G60V_YF]	12.3
ALDRPYTSKHS [NANS_Y71_E68D]	0.566
PRPACYPSTVS [CACNA1C_Y1832_G1831C]	0.598
NIQKKYFRAIL [CHD7_Y1217_YF]	0.433
YGEYRYRSVIK [CFTR_Y517_D513G]	0.644
KGFCGYSFDDI [TMEM230_Y110_R108C_YF]	0.863
ATKNDYWAMLA [WWOX_Y287_P282A]	3.97
HEDPMYDIIRD [RP9_Y142]	0.687
MHFSNYVSKGS [PDGFRA_Y849_D846Y_YF]	0.565
QRASDYYSQQM [GBP6_Y333_A331S]	1.22
DWRQEYVLNEP [TGM1_Y267_S272P]	1.24
ADFFDYGHGLS [KHDRBS3_Y304_YF]	0.727
LADKPYTFEFF [FXN_Y118_D122Y_YF]	0.952
VIESSYTSADG [DHCR7_Y382_C380S]	0.627
TFGVVYKARNK [CDK2_Y19_YF]	0.694
CRVEPYGENFN [APOA4_Y310_R305C]	0.869
PLDEEYFTLQI [TP53_Y327_G325E]	4.54

target: EPHB1 (UniProt P54762); assay: as above
Sequence (P54762 whole entry, looked up): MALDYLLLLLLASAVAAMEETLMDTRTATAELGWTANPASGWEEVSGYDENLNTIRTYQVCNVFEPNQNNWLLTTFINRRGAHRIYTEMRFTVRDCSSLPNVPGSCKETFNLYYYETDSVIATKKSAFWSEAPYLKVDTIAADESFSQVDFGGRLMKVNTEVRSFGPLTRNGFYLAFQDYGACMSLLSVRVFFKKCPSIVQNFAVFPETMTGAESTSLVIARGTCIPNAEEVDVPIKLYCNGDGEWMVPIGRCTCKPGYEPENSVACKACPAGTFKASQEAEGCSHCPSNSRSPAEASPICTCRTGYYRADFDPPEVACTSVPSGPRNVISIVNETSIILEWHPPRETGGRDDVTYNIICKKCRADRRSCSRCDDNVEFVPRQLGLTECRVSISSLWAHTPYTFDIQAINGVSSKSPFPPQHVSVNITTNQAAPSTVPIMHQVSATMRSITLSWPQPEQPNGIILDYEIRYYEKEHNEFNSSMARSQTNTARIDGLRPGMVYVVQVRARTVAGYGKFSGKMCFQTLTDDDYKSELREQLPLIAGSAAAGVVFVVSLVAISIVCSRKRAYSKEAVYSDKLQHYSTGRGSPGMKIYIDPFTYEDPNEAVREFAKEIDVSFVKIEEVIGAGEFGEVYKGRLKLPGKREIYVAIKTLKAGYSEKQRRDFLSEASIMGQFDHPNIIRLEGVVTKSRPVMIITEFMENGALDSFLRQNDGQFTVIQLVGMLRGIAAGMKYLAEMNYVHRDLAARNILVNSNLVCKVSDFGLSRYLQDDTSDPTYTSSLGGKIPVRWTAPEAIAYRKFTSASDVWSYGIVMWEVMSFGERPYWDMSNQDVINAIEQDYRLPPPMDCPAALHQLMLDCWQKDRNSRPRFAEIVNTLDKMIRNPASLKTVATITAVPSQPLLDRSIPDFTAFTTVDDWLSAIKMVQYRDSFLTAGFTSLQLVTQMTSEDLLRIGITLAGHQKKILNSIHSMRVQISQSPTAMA

Sequence	phosphorylation enrichment
DGMADCSDPSY [CDC5L_Y459_Y459C]	0.607
AKLDEYIAIAK [RCOR3_Y46]	0.614
YAADYYKLLGN [ROR2_Y646]	0.963
PRDGEYFTLQI [TP53_Y327_L323R]	1.31
IGERTYGQVFK [CDK13_Y716_G714R_YF]	0.468
RGYRQYAYDGK [HLA-A_Y140_D140Y]	0.674
IIAVHYVLEES [RYR2_Y4559]	0.565
KDYETYQPFQN [CTNND2_Y1157]	3.29
SLHPGYNFRFA [P2RX7_Y291_Y288H_YF]	0.573
SARVRYLMAEK [LDHB_Y173_F171V]	0.46
KLIETYFSKNF [PLP1_Y50_YF]	0.474
TQFWRYFAGNL [SLC25A5_Y112_L111R]	0.6
QNTVDYFDLFG [PTPN11_Y62_G60V_YF]	2.34
ALDRPYTSKHS [NANS_Y71_E68D]	0.364
PRPACYPSTVS [CACNA1C_Y1832_G1831C]	0.575
NIQKKYFRAIL [CHD7_Y1217_YF]	0.37
YGEYRYRSVIK [CFTR_Y517_D513G]	0.458
KGFCGYSFDDI [TMEM230_Y110_R108C_YF]	0.613
ATKNDYWAMLA [WWOX_Y287_P282A]	1.72
HEDPMYDIIRD [RP9_Y142]	3.51
MHFSNYVSKGS [PDGFRA_Y849_D846Y_YF]	0.604
QRASDYYSQQM [GBP6_Y333_A331S]	0.66
DWRQEYVLNEP [TGM1_Y267_S272P]	0.407
ADFFDYGHGLS [KHDRBS3_Y304_YF]	0.585
LADKPYTFEFF [FXN_Y118_D122Y_YF]	0.764
VIESSYTSADG [DHCR7_Y382_C380S]	0.468
TFGVVYKARNK [CDK2_Y19_YF]	0.439
CRVEPYGENFN [APOA4_Y310_R305C]	0.675
PLDEEYFTLQI [TP53_Y327_G325E]	1.02
